# Source: patent publication US20230293673A1 (LA JOLLA INSTITUTE FOR IMMUNOLOGY, published 2023)
# T1: gH ectodomain, FLAG-tagged and lacking its transmembrane anchor (gHecto^F_TBopt) (human cytomegalovirus (HCMV) strain TB40, UniProt P12824 24-709)
# T1 sequence: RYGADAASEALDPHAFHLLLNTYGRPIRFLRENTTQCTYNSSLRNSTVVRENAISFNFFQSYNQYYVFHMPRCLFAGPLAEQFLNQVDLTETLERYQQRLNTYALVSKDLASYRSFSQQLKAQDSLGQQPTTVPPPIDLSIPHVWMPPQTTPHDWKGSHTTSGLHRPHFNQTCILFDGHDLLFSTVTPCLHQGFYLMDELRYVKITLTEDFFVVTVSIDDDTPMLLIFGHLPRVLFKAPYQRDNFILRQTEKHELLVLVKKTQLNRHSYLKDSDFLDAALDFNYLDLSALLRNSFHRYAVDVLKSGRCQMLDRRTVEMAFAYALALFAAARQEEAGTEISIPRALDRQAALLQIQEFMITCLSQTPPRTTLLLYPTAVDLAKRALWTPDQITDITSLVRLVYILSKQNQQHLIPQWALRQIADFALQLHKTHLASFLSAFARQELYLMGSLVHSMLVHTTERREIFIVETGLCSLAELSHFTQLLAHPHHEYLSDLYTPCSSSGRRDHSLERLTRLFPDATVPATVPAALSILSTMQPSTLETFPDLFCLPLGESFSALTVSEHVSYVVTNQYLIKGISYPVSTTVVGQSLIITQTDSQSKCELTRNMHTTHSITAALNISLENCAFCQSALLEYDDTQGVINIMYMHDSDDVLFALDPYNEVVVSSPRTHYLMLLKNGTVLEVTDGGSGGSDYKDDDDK
# B1: octahistidine-tagged UL141 ectodomain (UL141ecto_3C His) (other)
# chain: DIAEKMWAENYETTSPAPVLVAEGEQVTIPCTVMTHSWPMVSIRARFCRSHDGSDELILDAVKGHRLMNGLQYRLPYATWNFSQLHLGQIFSLTFNVSTDTAGMYECVLRNYSHGLIMQRFVILTQLETLSRPDEPCCTPALGRYSLGDQIWSPTPWRLRNHDCGMYRGFQRNYFYIGRADAEDCWKPACPDEEPDRCWTVIQRYRLPGDCYRSQPHPPKFLPVTPAPPADIDTGMSPWATR
# notes: extracellular domain; not shown: C-terminal '3C' site and octahistidine tag
# Molecular target: T1, gH ectodomain, FLAG-tagged and lacking …
# Experiment: His-tag purification from Expi293F supernatant after co-expression, Western blot (FIG. 2B)
binder,measurement,value
B1,binding result,binds
